Patent publication US20220125947A1 (published 2022)
Residue numbers refer to the chain shown, from its start.

B1: VG9B459 (antibody, human IgG1, lambda)
heavy: not shown
light: QPVLTQPASVSGSPGQSITISCTGTSSDVGGYNYVSWYQQHPGKAPKLMIYEVSNRPSGVSNRFSGSKSGNTASLTISGLQAEDEADYYCSSYTSTSVVFGGGTKLTVLGQPKAAPSVTLFPPSSEELQANKATLVCLISDFYPGAVTVAWKADSSPVKAGVETTTPSKQSNNKYAASSYLSLTPEQWKSHRSYSCQVTHEGSTVEKTVAPTECS
notes: IgG1, lambda
B2: VG9B454 (antibody, human IgG1, lambda)
heavy: not shown
light: B1 light with P2A
notes: IgG1, lambda
B3: VG9B449 (antibody, human IgG1, lambda)
heavy: not shown
light: B1 light with P2A, L106V
notes: IgG1, lambda
B4: VG9B439 (antibody, human IgG1, lambda)
heavy: not shown
light: B1 light with P2S, V3A
notes: IgG1, lambda
B5: VG9B68 (antibody, human IgG1, kappa, V domains shown)
VH: EVQLVESGAEVKKPGSSVKVSCKASGGTFSTYAISWVRQAPGQGLEWMGGIIPIFGTATYAQRFQDRVMITADKSTTTAYMELSSLRSEDTAVFYCARGVGWGSDYYYGLDVWGQGTMVTVSS
VL: EIVMTQSPLSSPVTLGQPASISCRSSQSLVHSDGNTYLSWLQQRPGQSPRLLIYKISNRFSGVPDRFSGSGAGTDFTLRITRVEPEDVGVYYCIQATHHPLTFGGGTRLEIKR
notes: IgG1, kappa
B6: VG9B204 (antibody, human IgG1, lambda, V domains shown)
VH: QVQLQESGPGLVKPSETLSLTCTVSYGSFSSFYWSWIRQPAGKGLEWIGRIYTSGGTIYNPSLKSRVTMSVDTSKNQFSLKLSSVTAADTAVYYCARWLRAFDYWGQGTLVTVSS
VL: not shown
notes: IgG1, lambda
B7: VG9B462 (antibody, human IgG1, lambda)
heavy: not shown
light: B1 light with P2S
notes: IgG1, lambda
B8: VG9B458 (antibody, human IgG1, lambda)
heavy: not shown
light: B1 light with P2S
notes: IgG1, lambda
B9: VG9B461 (antibody, human IgG1, lambda)
heavy: not shown
light: B1 light with P7S, A8S, L106V
notes: IgG1, lambda
B10: VG9B27 (antibody, human IgG1, kappa, V domains shown)
VH: EVQLVQSGAEVKKPGSSVKVSCKASGGTFSSYVISWVRQAPGQGLEWMGGILPILSTANYAQKFQGRVTITADKSTSTAYMELSSLRSEDTAVYYCARAHDYYYGMDVWGQGTMVTVSS
VL: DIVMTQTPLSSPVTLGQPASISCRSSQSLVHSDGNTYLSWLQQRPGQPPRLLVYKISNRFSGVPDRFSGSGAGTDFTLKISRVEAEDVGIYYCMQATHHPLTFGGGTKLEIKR
notes: IgG1, kappa
B11: VG9B203 (antibody, human IgG1, lambda, V domains shown)
VH: QVQLVQSGPGLVKPSETLSLTCTVSGDSIGHYYWNWIRQPAGKGLEWIGRIYTSGSTNYNPSLKSRVTMSVDTSKNQFSLKLSSVTAADTAVYYCARSGGNFYWYFDLWGRGTLVTVSS
VL: QSVLTQPPSVSAAPGQKVTISCSGSSSNIGNNYVSWYQQVPGTAPKLLIYDNNKRPSGIPDRISGSKSGTSATLGITGLQTGDEADYYCGTWDSSLSAGVFGGGTKVTVLG
notes: IgG1, lambda
B12: VG9B163 (antibody, human IgG1, lambda, V domains shown)
VH: QVQLVQSGGGLVKPGASLKLSCAASGFTFSNHGMSWVRQTSDKRLEWVASITRGGDTTYYPDNVKGRFTISRENAKNTLYLQMSSLKSDDTALYYCTRGPLTVGYAMDYWGQGTTVTVSS
VL: B11 VL with S2L, S25N, N31H, V40L, K54Q, I63F, G69D, T91I, A98I, G99V
notes: IgG1, lambda
B13: VG9B81 (antibody, human IgG1, kappa, V domains shown)
VH: QVQLQESGPGLVKPSETLSLTCSVSGGSINTYYWSWFRQPAGKGLELIGRIYTSDNTNYNPSLKSRVTMSVDTSKNQFSLKLSSVTAADTAVYYCARYNWNYWYFDLWGRGTLVTVSS
VL: DIQMTQSPSFLSASVRDRVNITCRASQGISSYLAWYQQKPGKAPKLLIYTASTLQSGVPSRFSGSGSGTEFTLTISSLQPEDFATYYCQHLNSYPYTFGQGTKVEIKR
notes: IgG1, kappa
B14: VG9B380 (antibody, human IgG1, lambda, V domains shown)
VH: QVQLQESGPGLVKPSETLSLTCTVSGGSISNYYWSWIRQPAGKGLEWIGRIYPSGITSYDPSLKSRVTMSLDTSKNQFSLKLTSVTAADTAVYYCAGIMGTKGAFDIWGQGTMVTVSS
VL: QSALTQPASVSGSPGQSITISCTGTSSDVGGYNYVSWYQQHPGKAPKLLIYEVSNRPSGVSNRFSGSKSGSTASLTISGLQAEDEADYYCSSYTSTSVVFGGGTKLTVLG
notes: IgG1, lambda
B15: VG9B115 (antibody, human IgG1, kappa, V domains shown)
VH: QVTLRESGPTLVKPTQTLTLTCTFSGFSLSTYGVGVGWIRQPPGKALEWLALIYWNDDKRYNPSLKSRLTITKDTSKNQVVLTMTNMDPVGTATYYCSHESDWSYYFDYWGQGTMVTVSS
VL: EIVLTQSPATLSLSPGERATLSCRASQSVSSYLAWYQQKPGLAPRLLIYDASNRATGIPARFSGSGSGTDFTLTISSLEPVDFAVYYCQQRSSWPWTFGQGTKVDIKR
notes: IgG1, kappa
B16: VG9B103 (antibody, human IgG1, kappa, V domains shown)
VH: B5 VH with E6Q, A24T, T31S, R63K, M69T, T77S, S104T, M118T
VL: B5 VL with I2T, V3T, M4L, S28G, R79K, T81S, P85A, I94M, R108K, L109V
notes: IgG1, kappa
B17: VG9B131 (antibody, human IgG1, kappa, V domains shown)
VH: QVQLVQSGGTLVQPGGSLRLSCAVSGFTFSSYDMNWVRQAPGKGLEWVSYISSSSTAKYYADSVKGRFTISRDNAKNSLYLQMNSLWDEDTAVYYCAREDIVVVTPILQHWGQGTLVTVSS
VL: EIVMTQSPATLSLSPGERATLSCRASQSVSNYLAWYQQKSGQAPRLLIYDASNRATGIPARFSGSGSGTDFTLTISSLEPEDFAVYCCQQRSNWTFGQGTRLEIKR
notes: IgG1, kappa
B18: VG9B106 (antibody, human IgG1, kappa, V domains shown)
VH: EVQLVQSGAEVKKPGASVKVSCKASGYTFTGYYLHWVRQAPGQGLEWVGWINPSSGDTDYAQTFQGRVTMTRDTSISTAYMELSRLRSDDTAVYYCANELGIGVFDYWGQGTLVTVSS
VL: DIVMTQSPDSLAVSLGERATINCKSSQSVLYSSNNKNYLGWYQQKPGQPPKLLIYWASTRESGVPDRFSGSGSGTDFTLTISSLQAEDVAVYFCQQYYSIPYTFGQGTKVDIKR
notes: IgG1, kappa

Target: T1, γδ T cell receptor on human γδ T cells (human)
T1 construct: also called AG000003021 (γδ T cells)
Experiment: flow cytometry, DRC binding 37 C, human γδ T cells
Experimental: (§1) Binding of antibodies to human γδ T cells or SKW cell lines expressing Vγ9/Vδ2, Vγ9/Vδ2 or Vγ5/Vδ2 was carried out by flow cytometry. Briefly, the cells were centrifuged at 300×g for 5 minutes and the pellet was resuspended in 34 ml fresh media (in RPMI+10% FBS). 50 μL of the cells were then plated (44K cells/well) into assay plates. Samples were incubated for one hour at 37° C. in tissue culture (TC) incubator followed by wash steps by adding 100 μl FACS staining buffer. Secondary detention antibodies (A647 conjugated anti-human IgG Fc specific antibody (2 μg/mL) along with AF488 anti mouse CD3, clone OKT3 at 1 ug/mL) were added at 50 μL/well to appropriate wells according to the plate map. After incubating for 60 minutes at 37° C. in the TC incubator, cells were again washed as described above. This is followed by resuspension in 20 μL/well running buffer containing 1:1000 dilution of Sytox blue dead cell stain and the plates were run on iQue Screener.
(§2) Gating and data analysis: Human anti-human Vγ9 antibody (VG9B2 mAb at 10 nM) was used to mark the gating of positive population. All cells were first gated for singlets on SCS-A vs. SCS-H dot plot, live/dead followed by CD3 positive population, and this subset of CD3 positive population was gated for Vγ9 positive binding using positive control mAb. Cells were also assessed for cell binding of control mAbs by RL1 (A647) Geomeans from the live cell population. Advanced metrics were used and normalization metrics were chosen to calculate fold over background wells containing secondary antibody alone (designated as ‘background’ within ForeCyt settings).

Row | Binder | Max. Activity
1 | B1 | 1090 fold over background
2 | B2 | 1240 fold over background
3 | B3 | 1180 fold over background
4 | B4 | 1240 fold over background
5 | B5 | 1190 fold over background
6 | B6 | 1130 fold over background

Target: T2, gamma-delta T cell receptor on human γδ T cells (human)
T2 construct: also called AG000003021 (γδ T cells)
Experiment: flow cytometry, dose-response binding at 37 C, human γδ T cells
Experimental: as §1, §2

Row | Binder | Max. Activity
7 | B7 | 1540 fold over background
8 | B8 | 1410 fold over background
9 | B9 | 1540 fold over background
10 | B10 | 1450 fold over background
11 | B11 | 1750 fold over background
12 | B12 | 1350 fold over background
13 | B13 | 1770 fold over background
14 | B14 | 1750 fold over background
15 | B15 | 1520 fold over background
16 | B16 | 1680 fold over background
17 | B17 | 1400 fold over background
18 | B18 | 1520 fold over background
